According to patent US20250197889A1:

Target: humanized Nme2Cas9 expressed in HEK293T cells from a plasmid (Neisseria meningitidis strain De11444 (also printed De10444))
Test: cell-based or functional assay

AcrIIC4Hpa
fold decrease in genome editing in HEK293T cells at various ratios of Acr to Cas9 plasmid: 4 fold
